Measurements taken from patent publication US20120108492A1, “LIGAND-SPECIFIC NON-ANTIBODY COMPOUNDS THAT INHIBIT CR2 ACTIVATION AND METHODS OF USE THEREOF” (The Regents of the University of Colorado, priority 2008, published 2012).
Changes are numbered by the printed parent chain. Numbers in names are those of the source.

B1: R28A: single-site mutant of recombinant MBP-CR2 SCR1-2 (protein)
chain: ISCGSPPPILNGRISYYSTPIAVGTVIAYSCSGTFRLIGEKSLLCITKDKVDGTWDKPAPKCEYFNKYSSCPEPIVPGGYKIRGSTPYRHGDSVTFACKTNFSMNGNKSVWCQANNMWGPTRLPTCVSVFPLE
modifications: left off: large carriers; small tags and cut ends
B2: K57A: single-site mutant of recombinant MBP-CR2 SCR1-2 (protein)
chain: B1 chain with A28R, K57A
modifications: left off: large carriers; small tags and cut ends
B3: K41A: single-site mutant of recombinant MBP-CR2 SCR1-2 (protein)
chain: B1 chain with A28R, K41A
modifications: left off: large carriers; small tags and cut ends
B4: L10A: single-site mutant of recombinant MBP-CR2 SCR1-2 (protein)
chain: B1 chain with L10A, A28R
modifications: left off: large carriers; small tags and cut ends
B5: R13A: single-site mutant of recombinant MBP-CR2 SCR1-2 (protein)
chain: B1 chain with R13A, A28R
modifications: left off: large carriers; small tags and cut ends
B6: M117A: single-site mutant of recombinant MBP-CR2 SCR1-2 (protein)
chain: B1 chain with A28R, M117A
modifications: left off: large carriers; small tags and cut ends
B7: T86A: single-site mutant of recombinant MBP-CR2 SCR1-2 (protein)
chain: B1 chain with A28R, T86A
modifications: left off: large carriers; small tags and cut ends
B8: R36A: single-site mutant of recombinant MBP-CR2 SCR1-2 (protein)
chain: B1 chain with A28R, R36A
modifications: left off: large carriers; small tags and cut ends
B9: N11A: single-site mutant of recombinant MBP-CR2 SCR1-2 (protein)
chain: B1 chain with N11A, A28R
modifications: left off: large carriers; small tags and cut ends
B10: Y68A: single-site mutant of recombinant MBP-CR2 SCR1-2 (protein)
chain: B1 chain with A28R, Y68A
modifications: left off: large carriers; small tags and cut ends
B11: S32A: single-site mutant of recombinant MBP-CR2 SCR1-2 (protein)
chain: B1 chain with A28R, S32A
modifications: left off: large carriers; small tags and cut ends
B12: K50A: single-site mutant of recombinant MBP-CR2 SCR1-2 (protein)
chain: B1 chain with A28R, K50A
modifications: left off: large carriers; small tags and cut ends
B13: S15P: single-site mutant of recombinant MBP-CR2 SCR1-2 (protein)
chain: B1 chain with S15P, A28R
modifications: left off: large carriers; small tags and cut ends
B14: T34A: single-site mutant of recombinant MBP-CR2 SCR1-2 (protein)
chain: B1 chain with A28R, T34A
modifications: left off: large carriers; small tags and cut ends
B15: Y64A: single-site mutant of recombinant MBP-CR2 SCR1-2 (protein)
chain: B1 chain with A28R, Y64A
modifications: left off: large carriers; small tags and cut ends

Tested on: anti-CR2 SCR1-2 mAb 629
Assay: MBP-CR2 SCR1-2-629 mAb ELISA
Format: binding
Details: mutant MBP-CR2 SCR1-2 relative to wild-type
From the text: The excellent correlation observed between our cell-binding studies and the ELISA analyses provides proof-of-principle that the MBP-CR2 SCR1-2 ELISA is an effective means of characterizing CR2-ligand interactions. […] See Asokan et al. (2006) J Immunol 177:383-94; Guthridge et al. (2001) J Immunol 167:5758-66; Young et al. (2007) J Biol Chem 282:36614-36625. […] This epitope overlaps extensively with the binding surface on CR2 described above for EBV gp350, and also with the previously described binding sites for C3dg and C3d. Hannan et al. (2005) J Mol Biol 346:845-58; and Young et al. (2007) J Biol Chem 282:36614-36625.
(§1) After coating, the plates were blocked using 0.1% BSA in a PBS solution, pH 7.4 for one hour at room temperature. The plates were then washed, and incubated with either wild-type or mutant MBP-CR2 SCR1-2, at concentrations ranging from 0.03125-2.0 μg/ml in PBS for one hour at room temperature. After further washing, wild-type or mutant MBP-CR2 binding was detected using commercially available horseradish peroxidase-conjugated anti-MBP mAb (New England Biolabs) according to the manufacturer's instructions.

| Molecule | Weighting (629 mAb) |
| --- | --- |
| B1 | ++++ (++++>90%) |
| B2 | +++ (+++89.9-70%) |
| B3 | ++++ (++++>90%) |
| B4 | ++++ (++++>90%) |
| B5 | ++++ (++++>90%) |
| B6 | ++++ (++++>90%) |
| B7 | +++ (+++89.9-70%) |
| B8 | ++++ (++++>90%) |
| B9 | +++ (+++89.9-70%) |
| B10 | ++++ (++++>90%) |
| B11 | ++++ (++++>90%) |
| B12 | +++ (+++89.9-70%) |
| B13 | ++++ (++++>90%) |
| B14 | +++ (+++89.9-70%) |
| B15 | +++ (+++89.9-70%) |

Same assay, conditions: mutant MBP-CR2 SCR1-2 relative to wild-type; plate-bound 629 mAb

| Molecule | % 629 mAb Bindng |
| --- | --- |
| B1 | 103.1% |
| B2 | 85.5% |
| B3 | 97.5% |
| B4 | 113.2% |
| B5 | 108.1% |
| B6 | 113.8% |
| B7 | 85.6% |
| B8 | 113.9% |
| B9 | 87.5% |
| B10 | 102.3% |
| B11 | 117.8% |
| B12 | 87.5% |
| B13 | 91.7% |
| B14 | 84.9% |
| B15 | 82.0% |

Biological target: EBV gp350 (Epstein-Barr virus, UniProt P03200)
Sequence (P03200 1-470): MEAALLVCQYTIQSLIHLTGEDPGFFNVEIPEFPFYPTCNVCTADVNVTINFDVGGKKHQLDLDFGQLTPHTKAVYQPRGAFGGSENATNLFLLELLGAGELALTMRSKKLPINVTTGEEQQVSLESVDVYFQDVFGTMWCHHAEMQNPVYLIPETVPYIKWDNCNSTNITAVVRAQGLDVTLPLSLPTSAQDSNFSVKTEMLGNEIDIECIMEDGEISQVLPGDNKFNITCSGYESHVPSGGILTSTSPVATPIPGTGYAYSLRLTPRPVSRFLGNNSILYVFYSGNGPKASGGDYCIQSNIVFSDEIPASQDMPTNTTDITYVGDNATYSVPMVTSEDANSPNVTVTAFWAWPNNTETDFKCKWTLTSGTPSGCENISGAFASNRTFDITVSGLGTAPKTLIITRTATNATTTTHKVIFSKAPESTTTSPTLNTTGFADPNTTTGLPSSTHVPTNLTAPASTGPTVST
Assay: MBP-CR2 SCR1-2 mutant-EBV gp350 ELISA
Format: binding
Parameters: DNA corresponding to residues 1-470 of EBV gp350/220; E. coli biotin carboxyl carrier protein (BCCP) fragment, residues 70-156; hexa-histidine (C); made in house; host or cells: human embryonic kidney 293f freestyle cells (pSecTag2/Hygro B)
Details: mutant MBP-CR2 SCR1-2
Description: See Martin et al. (1991) J Exp Med 174:1299-311; Young et al. (2007) J Biol Chem 282:36614-36625; Guthridge et al. (2001) Biochemistry 40:5931-41; and Sarrias et al. (2001) J Immunol 167:1490-9. […] Young et al. (2007) J Biol Chem 282:36614-36625.
as §1

| Molecule | EBV gp350 binding relative to wild-type CR2 |
| --- | --- |
| B1 | significantly decreased capacity |
| B2 | significantly decreased capacity |
| B3 | significantly decreased capacity |
| B4 | failed to inhibit EBV gp350 binding |
| B13 | major reduction in EBV gp350 binding |

Tested on: anti-CR2 SCR1-2 monoclonal antibody 171
Assay: MBP-CR2 SCR1-2-171 mAb ELISA
Format: binding
Details: mutant MBP-CR2 SCR1-2 relative to wild-type
Description: See Asokan et al. (2006) J Immunol 177:383-94; Guthridge et al. (2001) J Immunol 167:5758-66; Young et al. (2007) J Biol Chem 282:36614-36625. […] Hannan et al. (2005) J Mol Biol 346:845-58; and Young et al. (2007) J Biol Chem 282:36614-36625.
as §1

| Molecule | Weighting (171 mAb) |
| --- | --- |
| B1 | ++++ (++++>90%) |
| B2 | ++++ (++++>90%) |
| B3 | ++++ (++++>90%) |
| B4 | ++++ (++++>90%) |
| B5 | − (−19.9-0%) |
| B6 | ++++ (++++>90%) |
| B7 | +++ (+++89.9-70%) |
| B8 | − (−19.9-0%) |
| B9 | + (+39.9-20%) |
| B10 | ++++ (++++>90%) |
| B11 | +++ (+++89.9-70%) |
| B12 | ++++ (++++>90%) |
| B13 | ++++ (++++>90%) |
| B14 | − (−19.9-0%) |
| B15 | − (−19.9-0%) |

Same assay, conditions: mutant MBP-CR2 SCR1-2 relative to wild-type; plate-bound 171 mAb

| Molecule | % 171 mAb Binding |
| --- | --- |
| B1 | 103.5% |
| B2 | 91.9% |
| B3 | 97.3% |
| B4 | 94.7% |
| B5 | 15.6% |
| B6 | 97.2% |
| B7 | 89.6% |
| B8 | 19.8% |
| B9 | 24.1% |
| B10 | 92.1% |
| B11 | 77.5% |
| B12 | 94.4% |
| B13 | 108.5% |
| B14 | 12.4% |
| B15 | 5.8% |
